Results: a protein production outcome set (Wang et al. 2014)

Test: label from the status in PepcDB records

Sequence	protein production
MPIDEWLVLNRIGIFENPSLRRYVSPFPPPELMGITSGLQSETGFAAHGADIYAALALASTIPITEYRHILDFGCGCGRLARMLKGHPHKISGCDIDLRHVKWIGQSLDFMNVKLSSVRPPIPFADDEMDAVISVSIFTHLTENSQDDFLAELFRVTRPGGTLFLTVHGAQALKRACHEQPIRHMLDMDEGRFRKAQQAFNQNKHGFVLQFGHLTTKPEKAFYTPRAIFRRIRDSFSRKTINMPFEYGIAFHPESYIREHWSKWFDILDYRHGAIHQFQDIVVLSPKK	failed
MKPRRKSALLWGAVAALSFLVLHQGYLLAGGAFLGVGPVAAVTVAVFVGGAAVSYYAEGRFGLFGWRR	failed
LPRQIAATVDLNSHGAGEHLDEQVIHCAHDLALQCNAELHLLHVCDAAKTHIADFGAGTVTMPGFDSSVRTAQRAAFNRLGDHHQIPLERRHFLEGAAIRAIAQFVGHNRVDVIVMGSHRHDAMQTFLGGTTAHVLEHPLCNVLAIKAVR	failed
MPQSSRYSDEHVEQLLSEMVNVLEKHHAPTDLALMVLGNMVTNLINTSIAPAQRQILARSFAEALQASIKKADKAHLEHHHHHH	failed
MKPENKIPVLTRLSDEMTAVVNFQQPGLPPWPADGDIETQRQYYLLERRFWNADAPSMTTRTCAVPTPYGDVTTRLYSPQPTSQATLYYLHGGGFILGNLDTHDRIMRLLARYTGCTVIGIDYSLSPQARYPQAIEETVAVCSYFSQHADEYSLNVEKIGFAGDSAGAMLALASALWLRDKHIRCGNVIAILLWYGLYGLQDSVSRRLFGGAWDGLTREDLDMYEKAYLRNDEDRESPWYCLFNNDLTRDVPPCFIASAEFDPLIDDSRLLHQTLQAHQQPCEYKMYPGTLHAFLHYSRMMTIADDALQDGARFFMARMKTPR	not failed
MTSPSHASDRGGGDGDSVENQSPELRKDPVTNRWVIFSPARAKRPTDFKSKSPQNPNPKPSSCPFCIGREQECAPELFRVPDHDPNWKLRVIENLYPALSRNLETQSTQPETGTSRTIVGFGFHDVVIESPVHSIQLSDIDPVGIGDILIAYKKRINQIAQHDSINYIQVFKNQGASAGASMSHSHSQMMALPVVPPTVSSRLDGTKDYFEETGKCCLCEAKSKHFVIDESSHFVSVAPFAATYPFEIWIIPKDHSSHFHHLDDVKAVDLGGLLKLMLQKIAKQLNDPPYNYMIHTSPLKVTESQLPYTHWFLQIVPQLSGVGGFEIGTGCYINPVFPEDVAKVMREVSLT	not failed
MERRLCAILAADMAGYSRLMERNETDVLNRQKLYRRELIDPAIAQAGGQIVKTTGDGMLARFDTAQAALRCALEIQQAMQQREEDTPRKERIQYRIGINIGDIVLEDGDIFGDAVNVAARLEAISEPGAICVSDIVHQITQDRVSEPFTDLGLQKVKNITRPIRVWQWVPDADRDQSHDPQPSHVQH	not failed
MSTTQLKVKEINEELDSRPAVPPINDIRSYIAALEAHGVLHRVKAEVDWKFELAHISKVNEEQKGPALLYENVKGNTIPVFTSAFTTPERIAICLEQDPSLSMCQLSRKWMELTTKQMIKPTFVKNPPVMENIIEEKDVDLENFPAPWFYPDDGGRFFGTSGYLVTQDPDTGWTNLGTYRSQILGKNILGSQIISGKHGDFHMKKYQERGEKMPVAYVVGGDPILFLASSTLVSAQTDEYDVGGALRGRPIEVFKSDLTGLTLPANAEIIVEGWMDPEELMEEGPFGEYTGYYSGNKMKDYPKPVIRVKRIIHRNKPIFWSTTVGKPINDTHMVQSINRTATLWHDLETMKVPGIQSVYFPAAATGRFWVVASVKQMYPGHSNHVADAINGSTTGHYGVKGIIIVDHDIAADDMDRVWWALAVRFDPKRSTQIITRGRSTPLDPGLPIEARDVVSRIILDATIPYEWKNKPNEIFMDRTVLQKVSDRWNEYGFTGASPVAEMIPRLTRPEVKKK	failed
MGIKQYSQEELKEMALVEIAHELFEEHKKPVPFQELLNEIASLLGVKKEELGDRIAQFYTDLNIDGRFLALSDQTWGLRSWYPYDQLDEETQPTVKAKKKKAKKAVEEDLDLDEFEEIDEDDLDLDEVEEELDLEADDFDEEDLDEDDDDLEIEEDIIDEDDEDYDDEEEEI	failed
MAPRKRNPNGSGSIWQRKDGRYEARVYVPQPDGTRKRKTVYGTTWEECDTKRQELVLRDRQGIPTPTRSAKLSEWLPYWLKHYVEPRRKLSTYDKYEVQVRLYLVPLLGTRRLESLSVADVRRFITRVQNAHTAATAKESHRVLRTALTAAVREELITRNVASLVEPPRVKQREIRPWSLEETLSFLEAARSDPLYAAFVLAIAMGLRRGELGGLRWSDVDLDNRVVHVRQQTQRRRGTLYDDDPKSRRIRVVPMPALCIAPLRWHRLRQRETFARTGVAWCEAGYVFATRNGRPVEPRNVYRSFTRVAADAGLRVVRLHDARHGCATLLTAAGVAPRVIMEILGHSQISITMDVYTHVVHDTQREAISHMDRLLKRRLPTSLSGGAGSIEFP	failed
MPSDSQNNKRIAQNTLLLYFRMLFLMLVSLYTSRVNLNALGIEDFGIYNVVGGLVAMFSIISGSLVSSISRFITFELGTENKEKLKKVFSTAVSIQFFLVIIVVILAETIGLWFLNNKMVIPEERILAANIIYQFSIISFALSLMSIPYTGTIVAHEKMSAFAYISIFDVIGKLAVALTISIAPIDKLIWFAGFIVFNSTIIQSIYIFYCKRHFEECTYHFIFDKSLLKNMFGFAGWNFIGSIAAILRDQGGNIVINMFCGPAVNAARGVAMQVNNAVSGFVSNFQTALNPQITKSYASGNYDYMMQLIFQGARLSYYILLILALPIISNTHFILQLWLGQVPKHTVLFVQLVLFFTMSESLANPLINAMLATGKIKKFQIIVGGLNLVNLPLSYICLRLGCIPESVVIIAIIISMICEMARVIMLRNMIHFPARSFLKKVYFNVIFVTITASILPLYLHFILEENIYTFTLISVVSFSCTLLSILYIGCSSEERVMVFSKVKVIVNKVSKRYK	failed
MGILDKVKNLLSQNADKVETVINKAGEFVDEQTQGNYSDAIHKLHDAASNVVGMSDQQS	not failed
MMRSVGAVGEPLVVMCVACPRRGGCVVTVVAAAKSCWCRGVSRNLNPGLCPARRVSVRHSGSCILWCGLPSGRVAAVSLPSDPRRFQRIYIEWQSIYLLNMAQQQRMQGQPMIIMGDDAQRVKDRDAQEHNISAARAVADAVRSTLGPKGMDKMLVSSMGDVTVTNDGVTILQEMDIDNPTAEMIVEVAETQEDEAGDGTTTAVAIAGELLKNAEDLLERDIHPTAIIKGYNLAAEQAREEVDNVAVDVDPDDKDLIRSVAETSMTGKGAELDKELLSSIIYDAVNQVAVETNDGGIVVDAANINIETQTGHGVNESQLLRGAAISKDPVHDQMPAAVEDADVLLLNEAIEVEEAEADTSVNIESPDQLQSFLDQEEKQLKEKVQQIADTGANVVFCQKGIDDMAQHYLAKEGILAVRRTKKSDIEFLTNVLDASVVTDLDAASEADVVAGSVTRDSDDELFYVEGESEQAHGVTLLLRGSTDHVVDELERGVSDALDVSAQTLSDGRVLPGGGATEVEVASRLRDFADSVSGREQLAVEAFADSLELVPRVLAENAGLDSIDTLVDLRSAHENDDDEHIGLNVLSGDLEDTFEAGVVEPAHAKEQAVTSASEAANLVLKIDDIISAGDLSTDKGDDDGGAGGMGGGMGGGMGGMM	failed
MTAVQLMELDSCTRCGECVKWCPTYAASGQKPGLAPRDKILRWRQYMNKSYGLKAKLFGPTEIPQSELEEFKDDVHGCTTCGICATVCESGINTVELWESLRTNLVKKGIGPFGKQGMFPKLEHHHHHH	failed
NQLLTQQANEDGLTKLFNRRYIDQKLDSMVAWHGRHHMPMAMILLDVDFFKPFNDNYGHIEGDRCLQAIANQLKATFCRSGEYVGRYGGEEFVVLLSSTDAQTAEREAERIQEAMYFLDYQHEFSSVANRVTVSQGVFVFQPTGKENQADLYATADRALYTSKSLGRNTYTMVNAS	not failed
MNVLDGAALEIGVPTVRTGIAGDGTLISVSGGSGADATPESDRILGALVLDDTHIDAVAVRRRRRGQGIGTALVEAALDRRDRLTAEFDADVRPFYEQLGFDVELLDDEDGRFRGIRK	failed
MTYLFVAAGGALGSTLRYWLSGLIAGAIGQSFPWGTLVINISGSIVIGAFATLTGPDGRVFIPGDWRQFFMVGVCGGYTTFSSFSLQTLTLAQEGQGLWAAANVVLSVVFCLIGVWLGHVGAVLINEGV	failed
MNSNPFVSVVMSVYNGGEFLKDAINSILSQSYKNFEFIIINDGSSDNFSEILELYDDERIKVLNNQENKGLVYSLNRGLLESIGKYIVRMDADDISLPNRIEKQVEFMEREPEVGVCGSYIEIFGDTIKRKVQRFPSNVNVNEAFLLFSTCLAHPSVIIRKSIVDKYKLRYDDRYLHAEDYAIWCQAVKYTKISNIREVLLKYRILESSVTRQANKNFQSRFDVHKSIYKDIFRNKGIDYTEKELYLHFIISDNNRFRNQALTIRPSEINAHLTKILSHYRGASNYKYIAFLVNKRGLSLSRWYSESRGFYFIMYLFKFLYYKIQIKKLEHHHHHH	failed
MKIFRNPPLVMSGLTLGLFALGNLLKLYHPSLRHLLSIIALLLYLFLILSILKNLSQALEQIKHPLIASIFPTFFMSGMLLAGYIQTFPFLEDWVTLISLTIWWLAFLGNAGLIAYFTIKFVIPFHWEHVFPSWSVLYVGIAVATLTAPISGQYILGQIIFWTCLLLTLLILPLMTIKAYCIGLPETAKPNICTFCAPLSLLLAGYLKTFPPEQSPNTNFVWLLLLASQLLYFFVVLQLPVLLKREFNPGFSAFTFPFAISATALRSAGSYLHLQLPLFQLLVKLEELLASILVLFILYSYLRFLSKQEDLPSN	failed
MLATPFWYNAALKVLKPVYRWRIKKRAENEMRYQQECRERFGPFQQPQNRHALWFHAVSVGETNAAQPLIEYYLKLGHPVLVTNTTKTGQARAKSLFLKSPYLELFQAVYLPVDQIFLLKQFFELYQPKLLALVETELWPNLIDQAQHYGVPTFLINARLSEKSAQGYARVSALSNAMLSRLTGLLAQDQSTQQRFIGLGLAREKAQVVGNIKFDIDVPLEHHHHHH	failed
MSREKIEANREKILNGPIVPTLLVLAYPIIINQLVHVLYNLTDTFWLGKLGRIELSAPGTAWPLVWFLMSIGSGFVVAGFAFVSQYIGAGDYEKANRYAGALYSLLLIFATGMSIFGIVLAPYFLRFMKVSETIFPYALTYTRIIFAGIPFSFTLFAFNFLLRAIGDTKTPVKINIGTIILNIILDPFFIFGWGPFPRLGVAGAAIATMLSNSVGSLIGGYLLFTGKVGIHLTLENLKPDLKFYSRIFRVGLPSSIGDSTSALGFVVLTRVIFTVGRIYGEAHGIKGYEDVAFPTYSITNRLTNFMFAFSDGISMAMGTMVGQNIGARKYERAKEIAEKAMLINFTILSIGTLLFAIFRVPIFKFFVNDPMVIAESKKVVMYFSASLPFFGIFSAVNQVFNSAGHTKKSMVLGIIRLWILRIPLSYWLGVAMKDTAGMWLGMGLSNVIGALIGLAWFLKGSWLRGVIEEHH	failed
MGGAVLAQPPGPTPTDGVPLRSSQPAVQVEPAPTTATAAPIERLFPKLTGRVVDTAQLLTPSAQVYLAQMLERLEQTTTDQVVVATVPSLGGHSIEEFGLQLGRHWGIGRKDKNNGVLLLVAKDDRKVRIEVGYGLEGRLNDIVAHFIIDGSIIPYFKDDLYSSGIIAGATSIVSVLSSTDRPMLVYRSVEKNWYQDIEWMWWFERLFYLVFVGVPLFGFLTQWRSGDDSPVVASGDSARRETRAERDTGSSSSAFDWFDSSSSSSSSSSDSFSGGGGSFGGGGASGSW	failed
